These results are taken from paper PMC7943553 (2021).

Where a chain is given by its changes, count along the chain named.

Sequences and labels used below:
T1: P. vivax Reticulocyte Binding Protein 2b, residues 161–1454 (P. vivax strain Salvador I, UniProt A5K736 161-1454, DyLight 488 (NHS ester) in the FRET assay; biotin (BirA site) in the competition ELISA between human mAbs)
T1 chain: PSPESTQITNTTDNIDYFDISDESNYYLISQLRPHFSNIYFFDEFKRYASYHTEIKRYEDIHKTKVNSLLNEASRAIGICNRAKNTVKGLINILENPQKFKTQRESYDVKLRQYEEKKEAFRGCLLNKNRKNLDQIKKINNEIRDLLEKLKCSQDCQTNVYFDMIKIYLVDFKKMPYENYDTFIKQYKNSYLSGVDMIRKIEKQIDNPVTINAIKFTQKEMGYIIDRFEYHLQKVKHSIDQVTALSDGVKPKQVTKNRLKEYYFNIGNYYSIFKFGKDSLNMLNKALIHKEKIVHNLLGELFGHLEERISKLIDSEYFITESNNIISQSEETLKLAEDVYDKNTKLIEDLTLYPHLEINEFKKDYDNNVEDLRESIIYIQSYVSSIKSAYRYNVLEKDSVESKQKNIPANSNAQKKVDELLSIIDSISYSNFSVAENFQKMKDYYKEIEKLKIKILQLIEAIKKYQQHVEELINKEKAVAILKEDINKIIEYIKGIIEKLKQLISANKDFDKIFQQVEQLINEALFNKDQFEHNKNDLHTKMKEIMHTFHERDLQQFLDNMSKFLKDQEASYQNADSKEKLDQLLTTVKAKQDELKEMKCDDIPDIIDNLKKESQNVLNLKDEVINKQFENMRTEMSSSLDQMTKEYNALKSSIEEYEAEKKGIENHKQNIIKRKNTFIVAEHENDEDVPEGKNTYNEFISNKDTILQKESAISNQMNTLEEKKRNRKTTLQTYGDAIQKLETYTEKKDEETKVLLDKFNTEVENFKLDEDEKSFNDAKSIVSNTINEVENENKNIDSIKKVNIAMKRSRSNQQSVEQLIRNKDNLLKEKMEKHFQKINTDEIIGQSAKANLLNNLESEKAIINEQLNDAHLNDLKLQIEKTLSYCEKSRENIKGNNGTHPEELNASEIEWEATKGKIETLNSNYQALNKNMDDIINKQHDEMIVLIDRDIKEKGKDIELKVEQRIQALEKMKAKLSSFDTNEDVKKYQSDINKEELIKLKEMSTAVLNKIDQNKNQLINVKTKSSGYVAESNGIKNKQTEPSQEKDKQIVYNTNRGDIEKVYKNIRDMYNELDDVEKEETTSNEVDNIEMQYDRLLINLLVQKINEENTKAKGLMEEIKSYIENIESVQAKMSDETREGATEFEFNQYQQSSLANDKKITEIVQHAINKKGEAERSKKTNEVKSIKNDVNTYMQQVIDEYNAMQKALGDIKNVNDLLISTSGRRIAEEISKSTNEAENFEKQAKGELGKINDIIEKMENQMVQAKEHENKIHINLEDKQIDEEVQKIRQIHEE

B1: PvRBP2b human mAb 283284 (antibody, V domains shown)
VH: QVQLQQWGAGLLKPSETLALTCTVYGGSSSGYYWNWIRQSPGKGLEWIGEISDSGSTIYNPSLESRVTMSVDTSKNQFSLKLTSVTAADTAVYYCAKAILTRYNWLDPWSQGTLVTVSS
VL: DIVMTQSPSSLSASVGDRISISCRASQGVNSALAWYQQKPGKAPKLLIYDASTLESGVPSRFSGSGSGTDFALTINSLQPEDFATYYCQQFNSYPLTFGGGTKVEIK
B2: PvRBP2b human mAb 253245 (antibody, V domains shown)
VH: EVQLVQSGAEVKKPGSSMKVSCKASGGTFNRYVFSWVRQAPGQGLEWMGGILPILETTYYAKNFKGRVTITADESTSTVYMELSSLTSEDTAVYFCARDEHDYVWGSYRPSLTGPWGQGTLVTVSS
VL: QSALTQPPSTSGSPGQSVTISCTGTGIDVGGFSYVSWFQYHPGKAPKLIIFEVTKRPSGVPDRFSGSKSGNTASLTISGLQADDEAEYYCSSYAVNNNFVFGTGTKVTVL
B3: PvRBP2b human mAb 243244 (antibody, V domains shown)
VH: QVQLVESGGGVVQSGKSLRVSCAASGFTFSSYGMHWVRQAPGKGLEWVAFISYDGDNKYSADSVKGRLTISRDNSKNTLYLQMNSLRPEDTAVYYCAKESNYGENAFDIWGQGTMVTVSS
VL: QSALTQPRSVSGSPGQSVTISCTGTSSDVGFYNFVSWYQHHPGKAPKLIIYDVSERPSGVPDRFSGSKSGNTASLSISGLQPEDEADYYCCSYAGTYTFVFGSGTKVTVL
B4: PvRBP2b human mAb 237235 (antibody, V domains shown)
VH: QVQLVESGGGVVQPGRSLRLSCAASGFMFNSYGMHWVRQAPGKGLEWMAFISYDGSDDYYGDSVKGRITISRDNSKNTLFLHINSLRTEDTAVYYCAKESNYGENAFDVWGHGTMVTVSS
VL: B3 VL with S27N, I49M, S54T, S76T, P82A, D87E, S103H
B5: PvRBP2b human mAb 241242 (antibody, V domains shown)
VH: EVQLLESGGGLVQPGGSLRLSCAVSGFTFRNYALSWVRQAPGKGLDWVSTISASGGATYYADSVKGHFTISRDNSKNILYLDMKSLRAEDTAIYYCARDGGSYTPYFFLDSWGQGALVTVSS
VL: SYELTQPASVSVAPGQTAQITCGGNSIGRKSIHWYQHKPGQAPVLVISYDSDRPSGIPERFSGSNSGNTATLTISKVEAGDEADFYCQVRDSDNDHVVFGGGTKLTVL
B6: PvRBP2b human mAb 251249 (antibody, V domains shown)
VH: EVQLVESGGGLVKPGGSLRLSCEASGFLFSSYSMNWVRQAPGKGLEWVSSITGYSSEVFYTDSVKGRFTVSRDNSKNSLYLQMDSLRAEDTAVYYCARALTIFGVVITDYWFFDLWGRGTLVTVSS
VL: EIVLTQSPATLSLSPGDRATLSCRASQSVTTFLAWYQQKPGQAPRLLIYDVSNRATGIPARFSGSGSGTDFTLTISSLEPEDFAVYYCQQRSNWGLTFGGGTKVEIK
B7: PvRBP2b human mAb 273264 (antibody, V domains shown)
VH: EVQLLESGGGLVRPGGSQRLSCAASGFTFTPYAMTWVRQAPGKGLEWLSTISGSGGSTSYADSVKGRFTISRDNSKNILYLQMDSLRAEDTALYYCTKDKDEYTFGHNAFDVWGRGTMVTVSS
VL: SYELTQAPSVSVAPGQTARITCGGDNIGRTSVHWYQQKPGQAPVLVIFYDNDRPSGIPERFSGSNSGNMATLSISRVEVGDEADYYCQVWDSNNDHPVFGGGTKLTVV
B8: PvRBP2b human mAb 258259 (antibody, V domains shown)
VH: B7 VH with S59Y, I78M, D84N, R87T, R115Q
VL: B7 VL with T30K, S31T, H33N, F48Y

One assay has as its target T1, P. vivax Reticulocyte Binding Protein …. Description: BLI. For orientation: BLI is a label-free optical method that tracks binding on a fibre tip over time.
B1 returned a koff of 6e-05 s⁻¹.

Regarding B2, the koff was found to be 8.17e-06 s⁻¹.

In turn, B3 registered a koff of 1.15e-05 s⁻¹.

The molecule B4 returned a koff of 3.45e-05 s⁻¹.

With B5, the koff was found to be 2.13e-05 s⁻¹.

The molecule B6 yielded a koff of less than 1e-06 s⁻¹.

Regarding B7, the koff turned out to be 3.02e-05 s⁻¹.

With B8, the off-rate constant (koff) was determined as 7.57e-06 s⁻¹.

The target is the same in a further assay. In words: BLI; representative sensorgram.
B1 had a Kd of 0.1 nM.

B2 came in with a Kd of less than 0.01 nM.

Turning to B3, the Kd was less than 0.01 nM.

In turn, B4 had a Kd of 0.1 nM.

In turn, B5 came in with a Kd of less than 0.01 nM.

B6 had a Kd of less than 0.01 nM.

B7 yielded a dissociation constant Kd of less than 0.01 nM.

The molecule B8 registered a Kd of less than 0.01 nM.

Another assay shares this target. In words: BLI. The source holds these as a separate data set.
Molecule B1 showed a Kd of 0.246 nM.

With B2, binding was put at a Kd of 0.0307 nM.

For the molecule B3, the Kd was determined as 0.0366 nM.

Turning to B4, binding was characterised by a dissociation constant (Kd) of 0.0883 nM.

B5 showed a Kd of 0.061 nM.

As for B6, the Kd is less than 0.01 nM.

Turning to B7, the Kd came out at 0.083 nM.

B8 gave an equilibrium dissociation constant (Kd) of 0.0269 nM.

As usually defined, the koff is the rate constant with which the complex falls apart. In general, Kd refers to the free concentration of one partner at which half of the binding sites on the other are occupied at equilibrium, for simple one-to-one binding.
